# Laboratory results taken from patent publication US20260242478A1 (published 2026).
# Where no end group is shown, it is not given here.
# B1: Phage-1875 (peptide)
# peptide: FVPWCIPAWMCAEN
# modifications: cysteine pairing not given here; also: displayed on phage as pIII fusion, pIII sequence and linker not given here
# B2: Phage-1860 (peptide)
# peptide: GDNWCKPEWMCIGF
# modifications: cysteine pairing not given here; also: displayed on phage as pIII fusion, pIII and linker sequences not given here
# notes: Clone of the Peptide-180 library
# B3: Phage-1891 (peptide)
# peptide: LEKWCIPAWMCEWS
# modifications: cysteine pairing not given here; also: fused to phage pIII, sequence and linker not given here
# notes: Peptide-180 library clone, tested as clonal phage supernatant; not shown: pIII of the bacteriophage to which the peptide is fused
# B4: Phage-1892 (peptide)
# peptide: VPKLCTPVWMCTGF
# modifications: cysteine pairing not given here; also: fused to phage pIII, sequence and linker not given here
# notes: as for B3
# B5: Phage-1893 (peptide)
# peptide: FDKWCIPPWMCQAL
# modifications: cysteine pairing not given here; also: fused to phage pIII, sequence and linker not given here
# notes: as for B3
# B6: Phage-1894 (peptide)
# peptide: FEKWCTPAWMCAGW
# modifications: cysteine pairing not given here; also: fused to phage pIII, sequence and linker not given here
# notes: as for B3
# B7: Phage-1895 (peptide)
# peptide: WEKMCVPSWMCHFS
# modifications: cysteine pairing not given here; also: fused to phage pIII, sequence and linker not given here
# notes: as for B3
# B8: Phage-1896 (peptide)
# peptide: VLKWCTPAWMCEIF
# modifications: cysteine pairing not given here; also: fused to phage pIII, sequence and linker not given here
# notes: as for B3
# B9: Phage-1897 (peptide)
# peptide: MEKLCIPAWMCDGM
# modifications: cysteine pairing not given here; also: fused to phage pIII, sequence and linker not given here
# notes: as for B3
# B10: Phage-1876 (peptide)
# peptide: VVKLCIPEWMCAEW
# modifications: cysteine pairing not given here; also: displayed on phage as pIII fusion, pIII sequence and linker not given here
# notes: tested as crude clonal phage supernatant
# B11: Phage-1877 (peptide)
# peptide: IERWCIPDWMCHVW
# notes: as for B10
# B12: Phage-1878 (peptide)
# peptide: VEILCKPKWMCEFW
# notes: as for B10
# B13: Phage-1879 (peptide)
# peptide: SLHWCIPAWMCDFV
# notes: as for B10
# B14: Phage-1880 (peptide)
# peptide: VLMLCKPAWMCMGF
# notes: as for B10
# B15: Phage-1881 (peptide)
# peptide: LEKWCTPAWMCEML
# notes: as for B10
# B16: Phage-1882 (peptide)
# peptide: VTPWCTPSWMCFGF
# notes: as for B10
# B17: Phage-1883 (peptide)
# peptide: VNKLCTPEWMCVGM
# notes: as for B10
# B18: Phage-1884 (peptide)
# peptide: MVMRCQPEWMCTGI
# notes: as for B10
# B19: Phage-1885 (peptide)
# peptide: FAKWCIPEWMCSVS
# notes: as for B10
# B20: Phage-1886 (peptide)
# peptide: WEKWCIPAWMCVAD
# notes: as for B10
# B21: Phage-1887 (peptide)
# peptide: LDHWCFPMWMCTGF
# notes: as for B10
# B22: Phage-1888 (peptide)
# peptide: WSNWCTPEWMCVGF
# notes: as for B10
# B23: Phage-1889 (peptide)
# peptide: DVMWCKPSWMCDWL
# notes: as for B10
# B24: Phage-1890 (peptide)
# peptide: AIKWCIPSWMCVED
# notes: tested as crude clonal phage supernatant; also called AIKWCIPSWMCVED
# Molecular target: T1, Anti-PSMA Fab (SEQ ID NOs: 19, 20)
# T1 construct: Biotinylated PSMA Fab captured on neutravidin coated plates in the phage ELISA; also called 006 PSMA Fab
# Assay: phage binding ELISA on captured anti-PSMA Fab; competitor: PSMA antigen pre-incubated in the wells
# Experimental: (§1) Clonal phage were harvested as crude supernatants and screened via standard ELISAs. […] Prior to the addition of clonal phage. wells were incubated with blocking buffer and PSMA antigen or blocking buffer alone. Without washing or aspirating, clonal phage supernatants were then added to the wells and incubated for a short time. Wells were then washed followed by detection of bound phage using a horse radish conjugated anti-M13 antibody.
row,Binder,Anti-PSMA Fab signal in the presence of PSMA
1,AVKLCIPEWMCVGQ [Phage-1861],0.0676
2,LDKWCIPEWMCFDY [Phage-1862],0.0678
3,DFRWCIPEWMCTGY [Phage-1863],0.11
4,IMKWCIPEWMCYFF [Phage-1864],0.1
5,EITRCIPAWMCDFW [Phage-1865],0.081
6,WEHWCRPAWMCESL [Phage-1866],0.134
7,WENRCTPAWMCKGF [Phage-1867],0.0837
8,MEKLCKPAWMCSML [Phage-1868],0.0627
9,SIKMCIPQWMCVMQ [Phage-1869],0.179
10,EFIWCRPAWMCMDV [Phage-1870],0.0681
11,HVKWCIPAWMCEAS [Phage-1871],0.0972
12,VMKWCIPEWMCQHT [Phage-1872],0.199
13,VEHWCIPAWMCEWM [Phage-1873],0.12
14,SPKWCTPEWMCSHL [Phage-1874],0.127
15,B1,0.111

# Molecular target: T2, Anti-PSMA Fab (SEQ ID NOs: 19, 20)
# T2 construct: In the phage ELISA the Fab was biotinylated and captured on neutravidin coated plates; also called 006 PSMA Fab
# Assay: phage ELISA; PSMA Fab on plate pre-incubated with PSMA antigen as competitor, anti-M13 HRP detection;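 further: crude clonal phage supernatants added to Fab-coated wells still holding PSMA antigen in blocking buffer, with bound phage as read-out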
# Experimental: as §1
row,Binder,"Phage binding ELISA, Anti-PSMA Fab signal in the presence of PSMA"
1,B2,0.0978

# Molecular target: T3, Anti-PSMA Fab (SEQ ID NOs: 19, 20)
# T3 construct: Biotinylated and captured on neutravidin coated plates in the phage ELISA; also called 006 PSMA Fab
# Assay: phage binding ELISA on captured PSMA Fab; competitor PSMA antigen pre-incubated in the well
# Experimental: as §1
row,Binder,Anti-PSMA Fab signal in the presence of PSMA
1,B3,0.113
2,B4,0.0783
3,B5,0.112
4,B6,0.0792
5,B7,0.0735
6,B8,0.141
7,B9,0.279

# Molecular target: T4, Anti-PSMA Fab (SEQ ID NOs: 19, 20)
# T4 construct: In the panning ELISA the Fab was biotinylated and captured on neutravidin coated plates; also called 006 PSMA Fab
# Assay: phage binding ELISA; biotinylated PSMA Fab on neutravidin plate pre-incubated with PSMA antigen (competitor), anti-M13 HRP detection;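 further: competition ELISA where clonal phage supernatants were added to wells preincubated with PSMA antigen or with blocking buffer only as control, bound phage read via HRP-coupled anti-M13 antibody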
# Experimental: as §1
row,Binder,Anti-PSMA Fab signal in the presence of PSMA
1,B10,0.115
2,B11,0.126
3,B12,0.109
4,B13,0.185
5,B14,0.375
6,B15,0.0814
7,B16,0.072
8,B17,0.0609
9,B18,0.122
10,B19,0.119
11,B20,0.134
12,B21,0.233
13,B22,0.0814
14,B23,0.127
15,B24,0.0876

# Molecular target: T4, Anti-PSMA Fab (SEQ ID NOs: 19, 20)
# Assay: phage binding ELISA; biotinylated PSMA Fab on neutravidin plate, clonal phage supernatant, anti-M13 HRP detection;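 further: wells were preincubated with blocking buffer either containing PSMA antigen or without it before crude phage supernatant was added, briefly incubated, then washed prior to detection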
# Experimental: as §1
row,Binder,"Anti-PSMA Fab (SEQ ID NOs: 19, 20) signal"
1,B10,2.08
2,B11,2.08
3,B12,2.07
4,B13,2.07
5,B14,2.07
6,B15,2.06
7,B16,2.06
8,B17,2.06
9,B18,2.06
10,B19,2.06
11,B20,2.05
12,B21,2.05
13,B22,2.05
14,B23,2.04
15,B24,2.04

# Molecular target: T2, Anti-PSMA Fab (SEQ ID NOs: 19, 20)
# Assay: phage ELISA; biotinylated PSMA Fab on neutravidin plate, clonal phage supernatant, anti-M13 HRP detection;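 further: wells preincubated with PSMA antigen in blocking buffer or with blocking buffer only before clonal phage were added for a short incubation, then bound phage detected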
# Experimental: as §1
row,Binder,"Phage binding ELISA, Anti-PSMA Fab signal"
1,B2,2.16

# Molecular target: T1, Anti-PSMA Fab (SEQ ID NOs: 19, 20)
# Assay: phage binding ELISA; biotinylated anti-PSMA Fab on neutravidin plate, bound phage detected with anti-M13-HRP
# Experimental: as §1
row,Binder,"Anti-PSMA Fab (SEQ ID NOs: 19, 20) signal"
1,AVKLCIPEWMCVGQ [Phage-1861],2.15
2,LDKWCIPEWMCFDY [Phage-1862],2.14
3,DFRWCIPEWMCTGY [Phage-1863],2.14
4,IMKWCIPEWMCYFF [Phage-1864],2.14
5,EITRCIPAWMCDFW [Phage-1865],2.13
6,WEHWCRPAWMCESL [Phage-1866],2.12
7,WENRCTPAWMCKGF [Phage-1867],2.12
8,MEKLCKPAWMCSML [Phage-1868],2.11
9,SIKMCIPQWMCVMQ [Phage-1869],2.11
10,EFIWCRPAWMCMDV [Phage-1870],2.11
11,HVKWCIPAWMCEAS [Phage-1871],2.1
12,VMKWCIPEWMCQHT [Phage-1872],2.09
13,VEHWCIPAWMCEWM [Phage-1873],2.09
14,SPKWCTPEWMCSHL [Phage-1874],2.09
15,B1,2.08

# Molecular target: T3, Anti-PSMA Fab (SEQ ID NOs: 19, 20)
# Assay: phage binding ELISA; biotinylated PSMA Fab on neutravidin plate, bound phage detected with anti-M13 HRP
# Experimental: as §1
row,Binder,"Anti-PSMA Fab (SEQ ID NOs: 19, 20) signal"
1,B3,2.04
2,B4,2.04
3,B5,2.04
4,B6,2.04
5,B7,2.03
6,B8,2.03
7,B9,2.03
